Source: doi:10.1101/2020.09.15.299115
Blank lines part the entries; values can stand above or below the molecule they belong to.

Tests used:
mCherry-FKBP-Ubc9 [1] = target: mCherry-FKBP-Ubc9 (UniProt P63279)
mCherry-FKBP-Ubc9 [2] = target: mCherry-FKBP-Ubc9 (UniProt P63279); experiment: partitioning into condensates

KM of SUMOylation of RanGAP* (no scaffolds) (mCherry-FKBP-Ubc9 [1]): 70 µM
Molecule: FKBP-EGFP-RanGAP* (RanGAP C-terminal domain 398-587, F562A) (from UniProt P46060 398-587) (domain or fragment)

fold concentration in droplets (mCherry-FKBP-Ubc9 [2]): 1.9 fold
B1: E1-EGFP (SAE1/2 heterodimer) (complex)
chain 1: MVEKEEAGGGISEEEAAQYDRQIRLWGLEAQKRLRASRVLLVGLKGLGAEIAKNLILAGVKGLTMLDHEQVTPEDPGAQFLIRTGSVGRNRAEASLERAQNLNPMVDVKVDTEDIEKKPESFFTQFDAVCLTCCSRDVIVKVDQICHKNSIKFFTGDVFGYHGYTFANLGEHEFVEEKTKVAKVSQGVEDGPDTKRAKLDSSETTMVKKKVVFCPVKEALEVDWSSEKAKAALKRTTSDYFLLQVLLKFRTDKGRDPSSDTYEEDSELLLQIRNDVLDSLGISPDLLPEDFVRYCFSEMAPVCAVVGGILAQEIVKALSQRDPPHNNFFFFDGMKGNGIVECLGPK
chain 2: MALSRGLPRELAEAVAGGRVLVVGAGGIGCELLKNLVLTGFSHIDLIDLDTIDVSNLNRQFLFQKKHVGRSKAQVAKESVLQFYPKANIVAYHDSIMNPDYNVEFFRQFILVMNALDNRAARNHVNRMCLAADVPLIESGTAGYLGQVTTIKKGVTECYECHPKPTQRTFPGCTIRNTPSEPIHCIVWAKYLFNQLFGEEDADQEVSPDRADPEAAWEPTEAEARARASNEDGDIKRISTKEWAKSTGYDPVKLFTKLFKDDIRYLLTMDKLWRKRKPPVPLDWAEVQSQGEETNASDQQNEPQLGLKDQQVLDVKSYARLFSKSIETLRVHLAEKGDGAELIWDKDDPSAMDFVTSAANLRMHIFSMNMKSRFDIKSMAGNIIPAIATTNAVIAGLIVLEGLKILSGKIDQCRTIFLNKQPNPRKKLLVPCALDPPNPNCYVCASKPEVTVRLNVHKVTVLTLQDKIVKEKFAMVAPDVQIEDGKGTILISSEEGETEANNHKKLSEFGIRNGSRLQADDFLQDYTLLINILHSEDLGKDVEFEVVGDAPEKVGPKQAEDAAKSITNGSDDGAQPSTSTAQEQDDVLIVDSDEEDSSNNADVSEEERSRKRKLDEKENLSAKRSRIEQKEELDDVIALD
